B1: HDA19-EGFP (HDA19pro:HDA19-EGFP) (enzyme, Arabidopsis thaliana, UniProt O22446 1-501, looked up)
chain: MDTGGNSLASGPDGVKRKVCYFYDPEVGNYYYGQGHPMKPHRIRMTHALLAHYGLLQHMQVLKPFPARDRDLCRFHADDYVSFLRSITPETQQDQIRQLKRFNVGEDCPVFDGLYSFCQTYAGGSVGGSVKLNHGLCDIAINWAGGLHHAKKCEASGFCYVNDIVLAILELLKQHERVLYVDIDIHHGDGVEEAFYATDRVMTVSFHKFGDYFPGTGHIQDIGYGSGKYYSLNVPLDDGIDDESYHLLFKPIMGKVMEIFRPGAVVLQCGADSLSGDRLGCFNLSIKGHAECVKFMRSFNVPLLLLGGGGYTIRNVARCWCYETGVALGVEVEDKMPEHEYYEYFGPDYTLHVAPSNMENKNSRQMLEEIRNDLLHNLSKLQHAPSVPFQERPPDTETPEVDEDQEDGDKRWDPDSDMDVDDDRKPIPSRVKREAVEPDTKDKDGLKGIMERGKGCEVEVDESGSTKVTGVNPVGVEEASVKMEEEGTNKGGAEQAFPPKT

Tests used:
[1] = target: B1; assay: fluorescence correlation spectroscopy
[2] = target: the molecule itself; assay: fluorescence correlation spectroscopy

percent of the complex in a 1:1 ratio [1] [%]	stoichiometry N [1]	Binder	stoichiometry N [2]
98.8	1 ratio (1:1)	SCR-mCherry (SCRpro:SCR-mCherry) (natural protein, Arabidopsis thaliana, UniProt Q9M384 1-653, looked up) MAESGDFNGGQPPPHSPLRTTSSGSSSSNNRGPPPPPPPPLVMVRKRLASEMSSNPDYNNSSRPPRRVSHLLDSNYNTVTPQQPPSLTAAATVSSQPNPPLSVCGFSGLPVFPSDRGGRNVMMSVQPMDQDSSSSSASPTVWVDAIIRDLIHSSTSVSIPQLIQNVRDIIFPCNPNLGALLEYRLRSLMLLDPSSSSDPSPQTFEPLYQISNNPSPPQQQQQHQQQQQQHKPPPPPIQQQERENSSTDAPPQPETVTATVPAVQTNTAEALRERKEEIKRQKQDEEGLHLLTLLLQCAEAVSADNLEEANKLLLEISQLSTPYGTSAQRVAAYFSEAMSARLLNSCLGIYAALPSRWMPQTHSLKMVSAFQVFNGISPLVKFSHFTANQAIQEAFEKEDSVHIIDLDIMQGLQWPGLFHILASRPGGPPHVRLTGLGTSMEALQATGKRLSDFADKLGLPFEFCPLAEKVGNLDTERLNVRKREAVAVHWLQHSLYDVTGSDAHTLWLLQRLAPKVVTVVEQDLSHAGSFLGRFVEAIHYYSALFDSLGASYGEESEERHVVEQQLLSKEIRNVLAVGGPSRSGEVKFESWREKMQQCGFKGISLAGNAATQATLLLGMFPSDGYTLVDDNGTLKLGWKDLSLLTASAWTPRS	–
–	–	B1	2

Source: doi:10.1101/313791 (bioRxiv, 2018)
